Laboratory results published in patent US20190032056A1 (VITRISA THERAPEUTICS, published 2019).

Target: complement Factor D present in C1q-depleted human serum (human, UniProt P00746 26-253)
Test: cell-based or functional assay

Chain of complement Factor D present in C1q-depleted human serum (P00746 26-253 limits assumed): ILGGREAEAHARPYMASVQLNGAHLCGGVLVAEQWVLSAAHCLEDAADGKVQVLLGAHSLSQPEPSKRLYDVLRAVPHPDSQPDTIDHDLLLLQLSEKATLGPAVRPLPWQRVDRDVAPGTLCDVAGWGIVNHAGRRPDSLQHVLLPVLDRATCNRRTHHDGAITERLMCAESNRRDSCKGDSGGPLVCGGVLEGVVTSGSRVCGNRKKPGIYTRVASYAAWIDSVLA

- IC50 inhibiting alternative complement in human serum (fD-dependent lysis of rabbit red blood cells): 3.3 nM
B1: anti-fD Fab with an amino acid sequence of heavy chain variable region according to SEQ ID NO:7 and light chain variable region according to SEQ ID NO:8 (Fab)
heavy: EVQLVQSGPELKKPGASVKVSCKASGYTFTNYGMNWVRQAPGQGLEWMGWINTYTGETTYADDFKGRFVFSLDTSVSTAYLQISSLKAEDTAVYYCERGGVNNWGQGTLVTVSSASTKGPSVFPLAPSSKSTSGGTAALGCLVKDYFPEPVTVSWNSGALTSGVHTFPAVLQSSGLYSLSSVVTVPSSSLGTQTYICNVNHKPSNTKVDKKVEPKSCDKTHT
light: DIQVTQSPSSLSASVGDRVTITCITSTDIDDDMNWYQQKPGKVPKLLISGGNTLRPGVPSRFSGSGSGTDFTLTISSLQPEDVATYYCLQSDSLPYTFGQGTKVEIKRTVAAPSVFIFPPSDEQLKSGTASVVCLLNNFYPREAKVQWKVDNALQSGNSQESVTEQDSKDSTYSLSSTLTLSKADYEKHKVYACEVTHQGLSSPVTKSFNRGEC
